In article PMC10397247:
Like-named read-outs stand apart in the source and are kept apart here. Values belong to the binder of their own block, whether it stands above or below them.

How the values were obtained:
Assay in all cases: two-hybrid library CCmax;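 further: natural log of median RNA to DNA barcode read ratio; higher means stronger binding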
APC9096-AA = target: T1, APC9096-AA; details: mean of both orientations
T1 chain: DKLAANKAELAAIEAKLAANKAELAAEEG

APC8191-AA = target: T2, APC8191-AA
T2 chain: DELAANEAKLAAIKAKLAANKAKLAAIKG

APC9319-AA = target: T3, APC9319-AA; details: mean of both orientations
T3 chain: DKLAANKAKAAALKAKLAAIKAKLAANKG

APC8910-AA = target: T4, APC8910-AA
T4 chain: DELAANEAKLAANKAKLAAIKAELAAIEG

4H446-AA = target: T5, 4H446-AA; details: mean of both orientations
T5 chain: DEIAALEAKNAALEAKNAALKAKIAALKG

4H3629-AA = target: T6, 4H3629-AA; details: mean of both orientations
T6 chain: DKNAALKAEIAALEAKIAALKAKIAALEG

4H3915-AA = target: T7, 4H3915-AA; details: mean of both orientations
T7 chain: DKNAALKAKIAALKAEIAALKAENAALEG

4H3619-AA = target: T8, 4H3619-AA; details: mean of both orientations
T8 chain: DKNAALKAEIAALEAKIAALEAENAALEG

4H63-AA = target: T9, 4H63-AA
T9 chain: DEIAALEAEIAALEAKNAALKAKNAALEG

4H3777-AA = target: T10, 4H3777-AA; details: mean of both orientations
T10 chain: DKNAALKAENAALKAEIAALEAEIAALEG

4H3449-AA = target: T11, 4H3449-AA
T11 chain: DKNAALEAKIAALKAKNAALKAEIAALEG

4H432-AA = target: T12, 4H432-AA; details: mean of both orientations
T12 chain: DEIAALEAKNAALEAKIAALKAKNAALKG

4H3974-AA = target: T13, 4H3974-AA; details: mean of both orientations
T13 chain: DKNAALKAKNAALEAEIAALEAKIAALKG

4H380-AA = target: T14, 4H380-AA; details: mean of both orientations
T14 chain: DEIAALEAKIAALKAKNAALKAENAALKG

4H662-AA = target: T15, 4H662-AA
T15 chain: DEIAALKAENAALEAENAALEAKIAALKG

4H55-AA = target: T16, 4H55-AA
T16 chain: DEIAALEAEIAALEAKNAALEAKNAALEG

4H891-AA = target: T17, 4H891-AA; details: mean of both orientations
T17 chain: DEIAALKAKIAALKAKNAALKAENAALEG

4H710-AA = target: T18, 4H710-AA; details: mean of both orientations
T18 chain: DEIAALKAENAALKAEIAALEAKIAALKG

4H3590-AA = target: T19, 4H3590-AA; details: mean of both orientations
T19 chain: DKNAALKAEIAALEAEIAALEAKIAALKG

4H94-AA = target: T20, 4H94-AA; details: mean of both orientations
T20 chain: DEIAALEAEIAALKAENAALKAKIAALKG

4H745-AA = target: T21, 4H745-AA; details: mean of both orientations
T21 chain: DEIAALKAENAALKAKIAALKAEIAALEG

4H3120-AA = target: T22, 4H3120-AA; details: mean of both orientations
T22 chain: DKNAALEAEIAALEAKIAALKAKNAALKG

4H3697-AA = target: T23, 4H3697-AA
T23 chain: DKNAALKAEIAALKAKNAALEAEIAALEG

4H3381-AA = target: T24, 4H3381-AA; details: mean of both orientations
T24 chain: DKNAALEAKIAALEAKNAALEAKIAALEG

4H930-AA = target: T25, 4H930-AA; details: mean of both orientations
T25 chain: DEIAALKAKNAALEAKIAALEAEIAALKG

4H3865-AA = target: T26, 4H3865-AA; details: mean of both orientations
T26 chain: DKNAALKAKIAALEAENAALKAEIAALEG

4H2725-AA = target: T27, 4H2725-AA
T27 chain: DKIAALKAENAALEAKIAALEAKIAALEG

4H536-AA = target: T28, 4H536-AA; details: mean of both orientations
T28 chain: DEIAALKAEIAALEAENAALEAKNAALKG

4H3165-AA = target: T29, 4H3165-AA; details: mean of both orientations
T29 chain: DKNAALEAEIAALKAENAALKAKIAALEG

4H3753-AA = target: T30, 4H3753-AA; details: mean of both orientations
T30 chain: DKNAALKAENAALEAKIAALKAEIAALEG

4H3395-AA = target: T31, 4H3395-AA; details: mean of both orientations
T31 chain: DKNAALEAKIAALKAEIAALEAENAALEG

4H310-AA = target: T32, 4H310-AA; details: mean of both orientations
T32 chain: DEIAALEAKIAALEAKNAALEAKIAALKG

4H629-AA = target: T33, 4H629-AA; details: mean of both orientations
T33 chain: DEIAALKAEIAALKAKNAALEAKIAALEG

4H3130-AA = target: T34, 4H3130-AA; details: mean of both orientations
T34 chain: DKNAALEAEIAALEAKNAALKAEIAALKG

4H485-AA = target: T35, 4H485-AA; details: mean of both orientations
T35 chain: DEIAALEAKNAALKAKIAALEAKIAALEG

4H797-AA = target: T36, 4H797-AA; details: mean of both orientations
T36 chain: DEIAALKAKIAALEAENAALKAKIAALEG

4H3016-AA = target: T37, 4H3016-AA; details: mean of both orientations
T37 chain: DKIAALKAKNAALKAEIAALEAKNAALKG

4H570-AA = target: T38, 4H570-AA; details: mean of both orientations
T38 chain: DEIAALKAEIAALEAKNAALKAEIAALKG

4H2865-AA = target: T39, 4H2865-AA
T39 chain: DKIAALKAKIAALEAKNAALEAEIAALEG

4H909-AA = target: T40, 4H909-AA; details: mean of both orientations
T40 chain: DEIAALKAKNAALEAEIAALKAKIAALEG

4H3410-AA = target: T41, 4H3410-AA; details: mean of both orientations
T41 chain: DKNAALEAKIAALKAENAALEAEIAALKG

4H3009-AA = target: T42, 4H3009-AA; details: mean of both orientations
T42 chain: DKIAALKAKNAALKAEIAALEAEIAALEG

4H850-AA = target: T43, 4H850-AA; details: mean of both orientations
T43 chain: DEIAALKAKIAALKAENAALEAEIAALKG

4H458-AA = target: T44, 4H458-AA; details: mean of both orientations
T44 chain: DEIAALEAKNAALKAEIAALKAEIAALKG

APC8401-AA = target: T45, APC8401-AA; details: mean of both orientations
T45 chain: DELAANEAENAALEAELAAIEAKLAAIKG

APC8516-AA = target: T46, APC8516-AA; details: mean of both orientations
T46 chain: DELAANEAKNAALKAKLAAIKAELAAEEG

APC9182-AA = target: T47, APC9182-AA; details: mean of both orientations
T47 chain: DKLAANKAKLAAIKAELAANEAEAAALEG

APC9291-AA = target: T48, APC9291-AA; details: mean of both orientations
T48 chain: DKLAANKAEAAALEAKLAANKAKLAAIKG

APC9141-AA = target: T49, APC9141-AA; details: mean of both orientations
T49 chain: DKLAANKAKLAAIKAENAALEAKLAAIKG

APC7524-AA = target: T50, APC7524-AA
T50 chain: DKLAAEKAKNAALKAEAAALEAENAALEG

APC9806-AA = target: T51, APC9806-AA; details: mean of both orientations
T51 chain: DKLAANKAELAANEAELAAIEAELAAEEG

interaction score (APC9096-AA): -1.76
interaction score (APC8191-AA): -1.48
interaction score (APC9319-AA): -1.88
interaction score (APC8910-AA): -1.9
Binder: DELAANEAKLAAIKAKLAANKAKLAAIKG [APC8191-AA]

interaction score (4H446-AA): -1.41
interaction score (4H3629-AA): -1.65
interaction score (4H3915-AA): -1.74
interaction score (4H3619-AA): -1.01
interaction score (4H63-AA): -1.51
interaction score (4H3777-AA): -2.46
interaction score (4H3449-AA): -2.07
interaction score (4H432-AA): 0.499
interaction score (4H3974-AA): -0.638
interaction score (4H380-AA): -1.96
Binder: DKNAALEAKIAALKAKNAALKAEIAALEG [4H3449-AA]

interaction score (4H891-AA): -1.8
interaction score (4H710-AA): -0.988
interaction score (4H3590-AA): -0.177
interaction score (4H94-AA): 1.39
interaction score (4H745-AA): 0.436
interaction score (4H3120-AA): -0.983
interaction score (4H3697-AA; mean of both orientations): -1.95
interaction score (4H3381-AA): -0.233
interaction score (4H930-AA): -1.5
interaction score (4H3865-AA): -1.3
interaction score (4H536-AA): 1.01
interaction score (4H3165-AA): -1.47
interaction score (4H3753-AA): -0.663
interaction score (4H3395-AA): -1.43
interaction score (4H310-AA): 1.7
interaction score (4H629-AA): -0.872
interaction score (4H3130-AA): -0.487
interaction score (4H485-AA): -1.28
interaction score (4H797-AA): -0.194
interaction score (4H3016-AA): -1.4
interaction score (4H570-AA): 1.01
interaction score (4H2865-AA): 0.121
interaction score (4H909-AA): -0.808
interaction score (4H3410-AA): -0.858
interaction score (4H3009-AA): 2.01
interaction score (4H850-AA): 0.586
interaction score (4H458-AA): -0.6
Binder: DKIAALKAKIAALEAKNAALEAEIAALEG [4H2865-AA]

interaction score (APC8401-AA): -1.27
interaction score (APC8516-AA): -1.83
interaction score (APC9182-AA): -1.85
interaction score (APC9291-AA): -1.72
interaction score (APC9141-AA): -1.69
interaction score (APC7524-AA): -1.65
interaction score (APC9806-AA): -1.98
Binder: DKLAAEKAKNAALKAEAAALEAENAALEG [APC7524-AA]

Second part, the binder before the results:

Binder: DEIAALKAENAALEAENAALEAKIAALKG [4H662-AA]
interaction score (4H662-AA): 0.217

Binder: DEIAALEAEIAALEAKNAALEAKNAALEG [4H55-AA]
interaction score (4H55-AA): -1.54
interaction score (4H662-AA; mean of both orientations): -1.57

Binder: DKIAALKAENAALEAKIAALEAKIAALEG [4H2725-AA]
interaction score (4H891-AA): -1.64
interaction score (4H710-AA): 0.748
interaction score (4H3590-AA): -0.62
interaction score (4H94-AA): -0.91
interaction score (4H745-AA): 1.36
interaction score (4H3120-AA): -1.56
interaction score (4H3697-AA): 1.2
interaction score (4H3381-AA): -1.94
interaction score (4H930-AA): 0.224
interaction score (4H3865-AA): -1.16
interaction score (4H2725-AA): 1.47
interaction score (4H536-AA): -1.71
interaction score (4H3165-AA): -0.466
interaction score (4H3753-AA): -1.26
interaction score (4H3395-AA): -1.64
interaction score (4H310-AA): -1.1
interaction score (4H629-AA): -0.516
interaction score (4H3130-AA): -0.815
interaction score (4H485-AA): 1.94
interaction score (4H797-AA): -1.21
interaction score (4H3016-AA): -0.188
interaction score (4H570-AA): -0.95
interaction score (4H2865-AA; mean of both orientations): -1.08
interaction score (4H909-AA): -0.311
interaction score (4H3410-AA): -1.72
interaction score (4H3009-AA): 1.76
interaction score (4H850-AA): -0.653
interaction score (4H458-AA): 0.908
